This note sets out measurements from PMC6013222, “SNPs in inflammatory genes CCL11, CCL4 and MEFV in a fibromyalgia family study” (PLoS ONE, 2018).

Series [1] has as its target T1, Recombinant human CCL4 (MIP-1β), wild type (human), P13236.
T1 chain: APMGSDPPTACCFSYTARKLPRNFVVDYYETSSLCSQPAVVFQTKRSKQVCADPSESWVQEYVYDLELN
As to the kind of experiment: SEC; Superdex 200 10/30 column, 0.5 mL/min in PBS, UV detection at 214 and 280 nm. The conditions noted are these: remark: other sources report otherwise. (Size exclusion chromatography separates by hydrodynamic size, large species first.)

Series [2] concerns the molecule itself. The series is described as above.

As a reminder, the stoichiometry N is the number of molecules, sites or subunits per partner or assembly.

B1: Recombinant human CCL4 (MIP-1β), wild type, P13236 24-92 (ligand)
chain: APMGSDPPTACCFSYTARKLPRNFVVDYYETSSLCSQPAVVFQTKRSKQVCADPSESWVQEYVYDLELN
Take B1: in series [1], the stoichiometry N worked out at 2.

B2: Recombinant human CCL4 variant (S80T) (ligand, UniProt P13236 24-92, looked up)
chain: APMGSDPPTACCFSYTARKLPRNFVVDYYETSSLCSQPAVVFQTKRSKQVCADPSETWVQEYVYDLELN
notes: C-C motif chemokine 4 (CCL4, MIP-1β), human, natural variant Ser80Thr from SNP rs1719152, recombinant; On SEC two broad peaks: a high molecular weight aggregate (>300 kDa) and a 16 kDa dimer; also called varCCL4; variant CCL4; source: bought: Kingfisher Biotech, Inc
As to B2, in series [2], the “stoichiometry N” value stood at 2.
